Data published in patent US20220074941A1, “HSP90 COMBINATION THERAPY” (Sloan-Kettering Institute for Cancer Research, priority 2011, published 2022).

B1: NUP54 (protein, UniProt Q7Z3B4 1-507, looked up)
Nucleoporin p54: MAFNFGAPSGTSGTAAATAAPAGGFGGFGTTSTTAGSAFSFSAPTNTGTTGLFGGTQNKGFGFGTGFGTTTGTSTGLGTGLGTGLGFGGFNTQQQQQTTLGGLFSQPTQAPTQSNQLINTASALSAPTLLGDERDAILAKWNQLQAFWGTGKGYFNNNIPPVEFTQENPFCRFKAVGYSCMPSNKDEDGLVVLVFNKKETEIRSQQQQLVESLHKVLGGNQTLTVNVEGTKTLPDDQTEVVIYVVERSPNGTSRRVPATTLYAHFEQANIKTQLQQLGVTLSMTRTELSPAQIKQLLQNPPAGVDPIIWEQAKVDNPDSEKLIPVPMVGFKELLRRLKVQDQMTKQHQTRLDIISEDISELQKNQTTSVAKIAQYKRKLMDLSHRTLQVLIKQEIQRKSGYAIQADEEQLRVQLDTIQGELNAPTQFKGRLNELMSQIRMQNHFGAVRSEERYYIDADLLREIKQHLKQQQEGLSHLISIIKDDLEDIKLVEHGLNETIHIRGGVFS
B2: NCKAP1 (protein, UniProt Q9Y2A7 2-1128, looked up)
Nck-associated protein 1: SRSVLQPSQQKLAEKLTILNDRGVGMLTRLYNIKKACGDPKAKPSYLIDKNLESAVKFIVRKFPAVETRNNNQQLAQLQKEKSEILKNLALYYFTFVDVMEFKDHVCELLNTIDVCQVFFDITVNFDLTKNYLDLIITYTTLMILLSRIEERKAIIGLYNYAHEMTHGASDREYPRLGQMIVDYENPLKKMMEEFVPHSKSLSDALISLQMVYPRRNLSADQWRNAQLLSLISAPSTMLNPAQSDTMPCEYLSLDAMEKWIIFGFILCHGILNTDATALNLWKLALQSSSCLSLFRDEVFHIHKAAEDLFVNIRGYNKRINDIRECKEAAVSHAGSMHRERRKFLRSALKELATVLSDQPGLLGPKALFVFMALSFARDEIIWLLRHADNMPKKSADDFIDKHIAELIFYMEELRAHVRKYGPVMQRYYVQYLSGFDAVVLNELVQNLSVCPEDESIIMSSFVNTMTSLSVKQVEDGEVFDFRGMRLDWFRLQAYTSVSKASLGLADHRELGKMMNTIIFHTKMVDSLVEMLVETSDLSIFCFYSRAFEKMFQQCLELPSQSRYSIAFPLLCTHFMSCTHELCPEERHHIGDRSLSLCNMFLDEMAKQARNLITDICTEQCTLSDQLLPKHCAKTISQAVNKKSKKQTGKKGEPEREKPGVESMRKNRLVVTNLDKLHTALSELCFSINYVPNMVVWEHTFTPREYLTSHLEIRFTKSIVGMTMYNQATQEIAKPSELLTSVRAYMTVLQSIENYVQIDITRVFNNVLLQQTQHLDSHGEPTITSLYTNWYLETLLRQVSNGHIAYFPAMKAFVNLPTENELTFNAEEYSDISEMRSLSELLGPYGMKFLSESLMWHISSQVAELKKLVVENVDVLTQMRTSFDKPDQMAALFKRLSSVDSVLKRMTIIGVILSFRSLAQEALRDVLSYHIPFLVSSIEDFKDHIPRETDMKVAMNVYELSSAAGLPCEIDPALVVALSSQKSENISPEEEYKIACLLMVFVAVSLPTLASNVMSQYSPAIEGHCNNIHCLAKAINQIAAALFTIHKGSIEDRLKEFLALASSSLLKIGQETDKTTTRNRESVYLLLDMIVQESPFLTMDLLESCFPYVLLRNAYHAVYKQSVTSSA
B3: FHOD1 (protein, UniProt Q9Y613 2-1164, looked up)
FH1/FH2 domain-containing …: AGGEDRGDGEPVSVVTVRVQYLEDTDPFACANFPEPRRAPTCSLDGALPLGAQIPAVHRLLGAPLKLEDCALQVSPSGYYLDTELSLEEQREMLEGFYEEISKGRKPTLILRTQLSVRVNAILEKLYSSSGPELRRSLFSLKQIFQEDKDLVPEFVHSEGLSCLIRVGAAADHNYQSYILRALGQLMLFVDGMLGVVAHSDTIQWLYTLCASLSRLVVKTALKLLLVFVEYSENNAPLFIRAVNSVASTTGAPPWANLVSILEEKNGADPELLVYTVTLINKTLAALPDQDSFYDVTDALEQQGMEALVQRHLGTAGTDVDLRTQLVLYENALKLEDGDIEEAPGAGGRRERRKPSSEEGKRSRRSLEGGGCPARAPEPGPTGPASPVGPTSSTGPALLTGPASSPVGPPSGLQASVNLFPTISVAPSADTSSERSIYKARFLENVAAAETEKQVALAQGRAETLAGAMPNEAGGHPDARQLWDSPETAPAARTPQSPAPCVLLRAQRSLAPEPKEPLIPASPKAEPIWELPTRAPRLSIGDLDFSDLGEDEDQDMLNVESVEAGKDIPAPSPPLPLLSGVPPPPPLPPPPPIKGPFPPPPPLPLAAPLPHSVPDSSALPTKRKTVKLFWRELKLAGGHGVSASRFGPCATLWASLDPVSVDTARLEHLFESRAKEVLPSKKAGEGRRTMTTVLDPKRSNAINIGLTTLPPVHVIKAALLNFDEFAVSKDGIEKLLTMMPTEEERQKIEEAQLANPDIPLGPAENFLMTLASIGGLAARLQLWAFKLDYDSMEREIAEPLFDLKVGMEQLVQNATFRCILATLLAVGNFLNGSQSSGFELSYLEKVSEVKDTVRRQSLLHHLCSLVLQTRPESSDLYSEIPALTRCAKVDFEQLTENLGQLERRSRAAEESLRSLAKHELAPALRARLTHFLDQCARRVAMLRIVHRRVCNRFHAFLLYLGYTPQAAREVRIMQFCHTLREFALEYRTCRERVLQQQQKQATYRERNKTRGRMITETEKFSGVAGEAPSNPSVPVAVSSGPGRGDADSHASMKSLLTSRPEDTTHNRRSRGMVQSSSPIMPTVGPSTASPEEPPGSSLPSDTSDEIMDLLVQSVTKSSPRALAARERKRSRGNRKSLRRTLKSGLGDDLVQALGLSKGPGLEV
B4: CPNE3 (protein, UniProt O75131 1-537, looked up)
Copine-3: MAAQCVTKVALNVSCANLLDKDIGSKSDPLCVLFLNTSGQQWYEVERTERIKNCLNPQFSKTFIIDYYFEVVQKLKFGVYDIDNKTIELSDDDFLGECECTLGQIVSSKKLTRPLVMKTGRPAGKGSITISAEEIKDNRVVLFEMEARKLDNKDLFGKSDPYLEFHKQTSDGNWLMVHRTEVVKNNLNPVWRPFKISLNSLCYGDMDKTIKVECYDYDNDGSHDLIGTFQTTMTKLKEASRSSPVEFECINEKKRQKKKSYKNSGVISVKQCEITVECTFLDYIMGGCQLNFTVGVDFTGSNGDPRSPDSLHYISPNGVNEYLTALWSVGLVIQDYDADKMFPAFGFGAQIPPQWQVSHEFPMNFNPSNPYCNGIQGIVEAYRSCLPQIKLYGPTNFSPIINHVARFAAAATQQQTASQYFVLLIITDGVITDLDETRQAIVNASRLPMSIIIVGVGGADFSAMEFLDGDGGSLRSPLGEVAIRDIVQFVPFRQFQNAPKEALAQCVLAEIPQQVVGYFNTYKLLPPKNPATKQQKQ
B5: SDCCAG1 (protein, UniProt O60524 1-1076, looked up)
Ribosome quality control …: MKSRFSTIDLRAVLAELNASLLGMRVNNVYDVDNKTYLIRLQKPDFKATLLLESGIRIHTTEFEWPKNMMPSSFAMKCRKHLKSRRLVSAKQLGVDRIVDFQFGSDEAAYHLIIELYDRGNIVLTDYEYVILNILRFRTDEADDVKFAVRERYPLDHARAAEPLLTLERLTEIVASAPKGELLKRVLNPLLPYGPALIEHCLLENGFSGNVKVDEKLETKDIEKVLVSLQKAEDYMKTTSNFSGKGYIIQKREIKPSLEADKPVEDILTYEEFHPFLFSQHSQCPYIEFESFDKAVDEFYSKIEGQKIDLKALQQEKQALKKLDNVRKDHENRLEALQQAQEIDKLKGELIEMNLQIVDRAIQVVRSALANQIDWTEIGLIVKEAQAQGDPVASAIKELKLQTNHVTMLLRNPYLLSEEEDDDVDGDVNVEKNETEPPKGKKKKQKNKQLQKPQKNKPLLVDVDLSLSAYANAKKYYDHKRYAAKKTQKTVEAAEKAFKSAEKKTKQTLKEVQTVTSIQKARKVYWFEKFLWFISSENYLIIGGRDQQQNEIIVKRYLTPGDIYVHADLHGATSCVIKNPTGEPIPPRTLTEAGTMALCYSAAWDARVITSAWWVYHHQVSKTAPTGEYLTTGSFMIRGKKNFLPPSYLMMGFSFLFKVDESCVWRHQGERKVRVQDEDMETLASCTSELISEEMEQLDGGDTSSDEDKEEHETPVEVELMTQVDQEDITLQSGRDELNEELIQEESSEDEGEYEEVRKDQDSVGEMKDEGEETLNYPDTTIDLSHLQPQRSIQKLASKEESSNSSDSKSQSRRHLSAKERREMKKKKLPSDSGDLEALEGKDKEKESTVHIETHQNTSKNVAAVQPMKRGQKSKMKKMKEKYKDQDEEDRELIMKLLGSAGSNKEEKGKKGKKGKTKDEPVKKQPQKPRGGQRVSDNIKKETPFLEVITHELQDFAVDDPHDDKEEQDLDQQGNEENLFDSLTGQPHPEDVLLFAIPICAPYTTMTNYKYKVKLTPGVQKKGKAAKTALNSFMHSKEATAREKDLFRSVKDTDLSRNIPGKVKVSAPNLLNVKRK
B6: TPP1 (protein, UniProt O14773 196-563, looked up)
Tripeptidyl-peptidase 1: LHLGVTPSVIRKRYNLTSQDVGSGTSNNSQACAQFLEQYFHDSDLAQFMRLFGGNFAHQASVARVVGQQGRGRAGIEASLDVQYLMSAGANISTWVYSSPGRHEGQEPFLQWLMLLSNESALPHVHTVSYGDDEDSLSSAYIQRVNTELMKAAARGLTLLFASGDSGAGCWSVSGRHQFRPTFPASSPYVTTVGGTSFQEPFLITNEIVDYISGGGFSNVFPRPSYQEEAVTKFLSSSPHLPPSSYFNASGRAYPDVAALSDGYWVVSNRVPIPWVSGTSASTPVFGGILSLINEHRILSGRPPLGFLNPRLYQQHGAGLFDVTRGCHESCLDEEVEGQGFCSGPGWDPVTGWGTPNFPALLKTLLNP

What follows are molecules tested on Hsp90 complexes in Mia-PaCa-2 cell extract (assay: Nano-LC-MS/MS of PU-beads pull-downs). Details: protein identified in PU-beads pull-down of Mia-PaCa-2 cell extract; QSTAR-Elite QTof MS.
Assay type: binding, human
Summary of the method: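 Lysates pre-cleared overnight at 4 °C with control beads underwent PU-bead pull-down; bound proteins were SDS-eluted, gel-separated, digested and analyzed by nano-LC-MS/MS on a QTof. Identifications used significance p<0.05, 0.4 Da tolerances and one missed cleavage; unique peptide (spectral) counts and sequence coverage were reported.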

| Molecule | Number of Assigned Spectra, Mia-Paca 2 |
| --- | --- |
| B1 | 0 |
| B2 | 2 |
| B3 | 0 |
| B4 | 0 |
| B5 | 3 |
| B6 | 1 |

The molecules below were run on Hsp90 complexes in K562 cell extract (assay: Nano-LC-MS/MS of PU-beads pull-downs). Details: protein identified in PU-beads pull-down of K562 cell extract, Prep 1; QSTAR-Elite QTof MS.
Assay type: binding
Summary of the method: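 Lysates pre-cleared overnight at 4 °C with control beads, then pulled down with PU-beads or control beads; eluted proteins (2% SDS boil) gel-separated and analysed by nano LC-MS/MS on a QTof. Mascot identification (p<0.05), spectral counts and sequence coverage evaluated in Scaffold.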

| Molecule | Number of Assigned Spectra, K562 Prep 1 |
| --- | --- |
| B1 | 1 |
| B2 | 5 |
| B3 | 5 |
| B4 | 4 |
| B5 | 2 |
| B6 | 4 |

Same assay, conditions: protein identified in PU-beads pull-down of K562 cell extract, Prep 2; QSTAR-Elite QTof MS

| Molecule | Number of Assigned Spectra, K562 Prep 2 |
| --- | --- |
| B1 | 7 |
| B2 | 1 |
| B3 | 2 |
| B4 | 5 |
| B5 | 2 |
| B6 | 1 |
